In patent publication US20110166208:

Tested on: bacterially-expressed calmodulin (non-methylated)

Xenopus laevis calmodulin protein methyltransferase, sequence (chain, as listed by the source): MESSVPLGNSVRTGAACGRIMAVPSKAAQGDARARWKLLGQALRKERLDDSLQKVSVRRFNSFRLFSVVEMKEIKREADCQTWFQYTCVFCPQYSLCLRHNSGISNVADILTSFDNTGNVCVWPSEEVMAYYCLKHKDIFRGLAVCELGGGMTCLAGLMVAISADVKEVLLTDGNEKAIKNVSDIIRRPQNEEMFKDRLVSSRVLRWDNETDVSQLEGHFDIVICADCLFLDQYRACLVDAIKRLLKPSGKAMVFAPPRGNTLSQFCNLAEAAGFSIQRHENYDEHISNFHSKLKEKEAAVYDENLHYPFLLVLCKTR

Substance | methyltransferase activity (in vitro) | catalytic activity | incorporation of radiolabel from [3H-methyl]AdoMet into calmodulin (phosphorimage) | specific activity
Tribolium casteaneum calmodulin protein methyltransferase | Each of the proteins exhibited robust methyltransferase activity (in vitro) toward non-methylated forms of calmodulin |  |  | 
Homo sapiens calmodulin protein methyltransferase, initially expressed clone with V209F (cDNA Accession BC 053733) |  | the initially expressed form of Hscalmodulin PKMT was catalytically inactive |  | 
Arabidopsis thaliana calmodulin protein methyltransferase | Each of the proteins exhibited robust methyltransferase activity (in vitro) toward non-methylated forms of calmodulin |  |  | 
Homo sapiens calmodulin protein methyltransferase (valine at 209, catalytically active form) | Each of the proteins exhibited robust methyltransferase activity (in vitro) toward non-methylated forms of calmodulin | alteration of the sequence of the clone to correspond to the gene-predicted valine restored catalytic activity to amounts similar to those observed for other cloned calmodulin KMTs | the radiolabel from [^3H-methyl]AdoMet was incorporated into calmodulin, in the presence of the recombinant calmodulin methyltransferases obtained from SEQ ID NO: 1, 2, and 3 | 
Rattus norvegicus calmodulin protein methyltransferase | Each of the proteins exhibited robust methyltransferase activity (in vitro) toward non-methylated forms of calmodulin |  | the radiolabel from [^3H-methyl]AdoMet was incorporated into calmodulin, in the presence of the recombinant calmodulin methyltransferases obtained from SEQ ID NO: 1, 2, and 3 | 56 nmoles min^-1 mg protein^-1
Xenopus laevis calmodulin protein methyltransferase | Each of the proteins exhibited robust methyltransferase activity (in vitro) toward non-methylated forms of calmodulin |  | the radiolabel from [^3H-methyl]AdoMet was incorporated into calmodulin, in the presence of the recombinant calmodulin methyltransferases obtained from SEQ ID NO: 1, 2, and 3 | 
